B1: Hairpin Ribozyme (parent)
chain: GUCCUCUUUCACGUGCGCGUGAAAGAGAGAAGUGAACCAGAGAAACACACGUUGUGGUAUAUUACCUGGUA

Variants of: B1
Assay: self-cleavage, relative activity (ratio to wild type); higher = more cleavage; co-transcriptional

Variant | self-cleavage
C18U A28G | 1.26
C18G A22U | 0.801
G19A C38U | 0.508
G19A A41U | 1.11
U20A C50A | 0.423
U20A C50U | 0.5
C18A C65U | 0.254
G19A A64C | 0.181
C18G G54C | 0.471
G19C U52A | 0.957
G19A U60G | 0.448
G19A U60A | 0.658
G19A U60C | 1.05
G19U U52G | 0.741
C18G A41C | 0.952
G19U A39G | 0.297
G19U G29A | 0.111
G19U G29U | 0.14
C18A G27C | 0.165
C18A G27A | 0.534
G19U A30U | 0.181
G19U A30G | 0.12
C18A A64U | 0.158
C18A A64G | 0.61

Variant | self-cleavage
G19U C38A | 0.141
G19U C38U | 0.481
C18U A44G | 0.113
C18U A44U | 0.15
G19A A28U | 0.408
G19A A28G | 0.934
C18U C48G | 0.0965
G19U G27A | 0.489
G19C A59G | 0.153
C18G G69A | 0.378
C18G C66A | 0.194
G19C A44G | 0.0921
G19A A59C | 0.199
G19C G42C | 0.329
G19C G42A | 0.194
G19C G57A | 0.174
G19U C48G | 0.2
G19A G68U | 0.242
C18U A43G | 0.103
C18G U33A | 0.169
C18G A47C | 0.242
C18G A47U | 0.0785
G19C A31U | 0.0995
G19C A31G | 0.524

Variant | self-cleavage
G19C A35U | 0.574
G19C A35C | 0.832
C18A G42A | 0.203
G19C G40A | 0.343
G19C G40U | 0.091
C18U C38A | 0.111
G19A U67C | 0.186
U20A A22U | 0.849
U20A A22C | 0.373
U20A A22G | 0.587
C18G U67C | 0.212
C18G U67A | 0.229
C18G U58A | 0.632
C18G U58G | 0.89
U20A A49C | 0.131
U20A A49U | 0.272
C18U A23G | 0.857
G19A A24U | 0.629
U20A G25A | 0.453
U20A G25U | 0.529
G19C G54U | 0.626
C18A A36G | 0.972
C18A A36U | 0.593
C18U A61G | 0.276

Variant | self-cleavage
C18G G34A | 1.23
C18U G32C | 0.142
C18A A43C | 0.107
C18A A43U | 0.196
G19A G25C | 0.419
G19A G25U | 0.441
G19U A26U | 0.682
G19U A28U | 0.628
G19U A28C | 0.357
C18A U70G | 0.862
C18A A31C | 0.192
G19U C37A | 0.34
C18U U55A | 0.128
C18G A31C | 0.0659
G19A G29U | 0.21
G19U G40A | 0.325
C18G U52G | 0.538
G19U G34U | 1.3
G19U G34C | 1.36
C18U U20C | 1.06
C18U U20A | 0.848
G19U G68C | 0.196
G19A A23G | 0.948
U20A A36U | 0.497

Variant | self-cleavage
G19C U55C | 0.271
G19C A28G | 1.15
G19C A28C | 0.304
C18A A39G | 0.395
G19C G32A | 0.147
C18A A47G | 0.216
C18A A45C | 0.173
C18A A30G | 0.115
C18G U70A | 0.885
C18A A71C | 1.34
C18A A71U | 0.831
G19A A30G | 0.149
G19A A30C | 0.146
G19U A64G | 0.539
G19U A64C | 0.162
G19A G57A | 0.152
G19A G57C | 0.138
G19A U55A | 0.29
G19A U55C | 0.123
G19A U55G | 0.216
C18G G27U | 0.199
C18U C46G | 0.145
G19U C50A | 0.329
C18U G40C | 0.0598

Variant | self-cleavage
G19C A61U | 0.25
G19C A61G | 0.144
U20A A64G | 0.562
G19C A49C | 0.0455
G19C A49G | 0.366
C18G A24U | 0.729
G19C G34C | 1.31
G19C U53A | 0.861
C18U G51C | 0.881
C18U G51A | 1.26
C18U C66A | 0.25
G19U G21A | 0.875
U20A A35G | 0.815
U20A A35C | 0.967
G19C U70A | 0.673
C18A G19C | 0.802
G19U G57C | 0.105
U20A G29A | 0.101
C18U A45C | 0.218
G19U A71G | 1.02
C18U G68A | 0.224
C18U G68U | 0.307
C18U G68C | 0.221
G19A U62G | 0.103

Variant | self-cleavage
G19C A45G | 0.277
G19C A45C | 0.114
C18U G19C | 0.89
C18A G25U | 0.761
C18A G25C | 0.58
G19A C37G | 0.188
C18U U70C | 0.984
G19A A35C | 0.987
G19A A35G | 1.01
G19A A35U | 0.607
G19U C65A | 0.733
G19U C65G | 0.405
G19U A22U | 0.648
G19A A36C | 0.511
G19A A36U | 0.542
C18A G40U | 0.174
C18A G40A | 0.305
G19U U70G | 0.79
C18G A35G | 1.24
G19U U63A | 0.166
C18U G27U | 0.303
C18U A47C | 0.474
G19U U67C | 0.214
G19C C48G | 0.165

Variant | self-cleavage
G19U C66A | 0.272
C18G G51U | 0.953
C18G G51A | 0.933
U20A C37G | 0.375
G19U A49U | 0.158
G19C G56A | 0.101
G19A G69A | 0.347
G19A G69C | 0.129
C18U G34U | 1.46
C18U A35C | 0.968
C18U A35G | 0.986
G19A A39G | 0.274
G19A A39C | 0.437
C18U G69C | 0.334
C18U G69U | 0.272
G19A U52C | 0.835
C18A G29A | 0.149
C18A G29C | 0.118
C18A G32C | 0.0795
G19C C46A | 0.303
G19U A44U | 0.124
C18U A24C | 1.21
G19U U20A | 0.825
U20A C66A | 0.231

Variant | self-cleavage
G19C A43U | 0.121
G19C A23C | 0.696
C18A C37A | 0.315
G19A C50A | 0.278
C18A G68C | 0.18
U20A G32A | 0.18
U20A A30C | 0.253
C18G G29U | 0.201
C18A A35U | 0.734
C18A A35G | 1.05
U20A A41G | 0.681
G19U A59G | 0.204
G19U A59U | 0.213
C18A U67C | 0.274
G19A U70C | 0.922
C18G A26C | 0.489
G19A G54C | 0.403
G19C A36G | 0.766
G19A G32U | 0.175
G19A G32A | 0.131
C18A G54A | 0.591
G19C U67G | 0.227
G19C U67A | 0.323
C18U A64C | 0.216

Variant | self-cleavage
C18U A64U | 0.109
C18U A64G | 0.71
C18G A45G | 0.0821
G19A C65G | 0.324
G19A C65A | 0.748
G19A C65U | 0.265
U20A A28U | 0.497
C18A G57A | 0.209
C18A G57C | 0.187
G19C C38U | 0.489
G19C C38A | 0.174
G19C G68C | 0.222
G19C G68A | 0.276
G19U A31U | 0.0864
C18A A41G | 0.76
U20A A43G | 0.348
U20A A43U | 0.0666
C18U U58C | 1.17
C18U U58G | 0.991
C18U U62C | 0.393
G19C U60A | 0.9
G19C U60G | 0.541
G19C U60C | 0.984
U20A A71C | 1.15

Variant | self-cleavage
U20A A71U | 0.735
C18U G57A | 0.188
C18U G57U | 0.234
G19C U58C | 0.815
G19C U58G | 0.705
C18G A59G | 0.284
C18G A59U | 0.239
G19A A43G | 0.16
G19A A43U | 0.102
U20A G21A | 0.79
U20A G21U | 0.642
C18U U33A | 0.242
C18G C48A | 0.146
C18G C48G | 0.138
C18G C48U | 0.11
C18U A59G | 0.148
C18A U58C | 1.07
C18U G29U | 0.172
C18U G29C | 0.116
C18U U67C | 0.249
C18U U67A | 0.109
G19A G21C | 0.673
G19C A30G | 0.187
G19C G29A | 0.112

Variant | self-cleavage
G19C C66G | 0.245
C18U U63G | 0.278
C18U U63A | 0.229
C18U U63C | 0.18
G19C A26G | 0.692
C18U | 1.06
C18G | 0.931
C18G A30G | 0.131
U20A A45G | 0.183
U20A A45C | 0.109
C18U C65A | 0.88
C18U C65G | 0.27
C18U A49U | 0.141
G19C G21U | 0.718
C18G U53G | 0.819
C18G U53C | 0.806
C18G U53A | 1.02
C18A U60C | 1.1
G19U G69U | 0.227
C18G A61U | 0.247
G19U A43C | 0.101
C18A U53C | 1.01
G19A U53A | 0.919
C18G U63A | 0.147

Variant | self-cleavage
C18A C48U | 0.214
G19U A24U | 0.684
G19U A24G | 0.926
C18G U20C | 0.923
C18U C50A | 0.314
U20A A26U | 0.611
U20A A26C | 0.394
U20A A47G | 0.185
U20A A47U | 0.274
C18G A71G | 0.932
U20A G34A | 0.993
U20A G34C | 1.26
C18U A41C | 1.09
G19A A44U | 0.269
G19A A44G | 0.137
C18A G34U | 1.46
G19A A26C | 0.541
G19A A26G | 0.932
G19C | 0.85
G19A | 0.853
G19U | 0.891
C18U A30C | 0.21
C18U A30G | 0.151
C18G G68A | 0.268

Variant | self-cleavage
U20A A31C | 0.21
C18A U63C | 0.0808
C18U G25U | 0.69
U20A A24U | 0.732
G19A A47G | 0.183
G19A G27U | 0.237
G19A C46G | 0.176
G19U U62G | 0.24
G19U U62A | 0.268
C18G G40A | 0.344
G19U G54A | 0.468
G19U G54U | 0.497
C18U A36G | 1.15
C18G A36G | 0.68
C18U A39G | 0.375
G19A G42C | 0.289
C18G C46A | 0.0797
C18G C46G | 0.0987
G19U U60G | 0.444
G19U U60A | 0.804
G19U G32A | 0.124
C18A U52C | 1.05
